# Several values for one entry are separate records, joined by “and”; a condition that tells them apart may be missing. Identical values can stand only once. Where no end group is shown, it is not given here.
# T1: β-catenin (UniProt P35222 134-665, limits assumed, biotinylated in the SPR and plate assays)
# T1 sequence (looked up): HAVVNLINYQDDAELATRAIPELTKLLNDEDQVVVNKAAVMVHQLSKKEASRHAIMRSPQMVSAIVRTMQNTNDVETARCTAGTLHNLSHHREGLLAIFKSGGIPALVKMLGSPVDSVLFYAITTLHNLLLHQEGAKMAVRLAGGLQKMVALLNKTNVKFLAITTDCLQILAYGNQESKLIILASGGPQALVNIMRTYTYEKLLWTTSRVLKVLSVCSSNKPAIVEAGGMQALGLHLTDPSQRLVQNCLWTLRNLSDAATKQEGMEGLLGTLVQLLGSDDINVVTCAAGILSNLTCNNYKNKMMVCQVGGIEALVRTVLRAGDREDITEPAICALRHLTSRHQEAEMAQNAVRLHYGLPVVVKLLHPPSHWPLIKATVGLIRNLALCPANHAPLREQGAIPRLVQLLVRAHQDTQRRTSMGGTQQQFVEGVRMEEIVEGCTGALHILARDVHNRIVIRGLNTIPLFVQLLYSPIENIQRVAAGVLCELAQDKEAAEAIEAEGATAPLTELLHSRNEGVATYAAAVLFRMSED
# B1: SEQ ID NO: 101 (peptide)
# peptide: WFLISSW
# HELM: PEPTIDE1{W.F.L.I.S.[O=C([C@H](COCc1ccccc1)N[*:1])[*:2]].W}$$$$V2.0
# SMILES: CC[C@H](C)[C@H](NC(=O)[C@H](CC(C)C)NC(=O)[C@H](Cc1ccccc1)NC(=O)[C@@H](N)Cc1c[nH]c2ccccc12)C(=O)N[C@@H](CO)C(=O)N[C@@H](COCc1ccccc1)C(=O)N[C@@H](Cc1c[nH]c2ccccc12)C(=O)O
# B2: SEQ ID NO: 104 (peptide)
# peptide: WFLISSW
# HELM: PEPTIDE1{W.F.L.I.S.[CCOC[C@H](N[*:1])C(=O)[*:2]].W}$$$$V2.0
# SMILES: CCOC[C@H](NC(=O)[C@H](CO)NC(=O)[C@@H](NC(=O)[C@H](CC(C)C)NC(=O)[C@H](Cc1ccccc1)NC(=O)[C@@H](N)Cc1c[nH]c2ccccc12)[C@@H](C)CC)C(=O)N[C@@H](Cc1c[nH]c2ccccc12)C(=O)O
# B3: SEQ ID NO: 167 (peptide)
# peptide: KMWFLICAWD
# HELM: PEPTIDE1{K.M.W.F.L.I.C.A.W.D}$PEPTIDE1,PEPTIDE1,1:R3-10:R3$$$V2.0
# SMILES: CC[C@H](C)[C@@H]1NC(=O)[C@H](CC(C)C)NC(=O)[C@H](Cc2ccccc2)NC(=O)[C@H](Cc2c[nH]c3ccccc23)NC(=O)[C@H](CCSC)NC(=O)[C@@H](N)CCCCNC(=O)C[C@@H](C(=O)O)NC(=O)[C@H](Cc2c[nH]c3ccccc23)NC(=O)[C@H](C)NC(=O)[C@H](CS)NC1=O
# B4: SEQ ID NO: 105 (peptide)
# peptide: MSRMWFLISSW
# HELM: PEPTIDE1{M.S.R.M.W.F.L.I.S.[CCOC[C@H](N[*:1])C(=O)[*:2]].W}$$$$V2.0
# SMILES: CCOC[C@H](NC(=O)[C@H](CO)NC(=O)[C@@H](NC(=O)[C@H](CC(C)C)NC(=O)[C@H](Cc1ccccc1)NC(=O)[C@H](Cc1c[nH]c2ccccc12)NC(=O)[C@H](CCSC)NC(=O)[C@H](CCCNC(=N)N)NC(=O)[C@H](CO)NC(=O)[C@@H](N)CCSC)[C@@H](C)CC)C(=O)N[C@@H](Cc1c[nH]c2ccccc12)C(=O)O
# B5: SEQ ID NO: 106 (peptide)
# peptide: MSRMWFLISSW
# HELM: PEPTIDE1{M.S.R.M.W.F.L.I.S.[O=C([C@H](COCc1ccccc1)N[*:1])[*:2]].W}$$$$V2.0
# SMILES: CC[C@H](C)[C@H](NC(=O)[C@H](CC(C)C)NC(=O)[C@H](Cc1ccccc1)NC(=O)[C@H](Cc1c[nH]c2ccccc12)NC(=O)[C@H](CCSC)NC(=O)[C@H](CCCNC(=N)N)NC(=O)[C@H](CO)NC(=O)[C@@H](N)CCSC)C(=O)N[C@@H](CO)C(=O)N[C@@H](COCc1ccccc1)C(=O)N[C@@H](Cc1c[nH]c2ccccc12)C(=O)O
# B6: SEQ ID NO: 32 (peptide)
# peptide: KSRMWYLISFW
# HELM: PEPTIDE1{K.S.R.M.W.Y.L.I.S.F.W}$PEPTIDE1,PEPTIDE1,1:R3-11:R2$$$V2.0
# SMILES: CC[C@H](C)[C@@H]1NC(=O)[C@H](CC(C)C)NC(=O)[C@H](Cc2ccc(O)cc2)NC(=O)[C@H](Cc2c[nH]c3ccccc23)NC(=O)[C@H](CCSC)NC(=O)[C@H](CCCNC(=N)N)NC(=O)[C@H](CO)NC(=O)[C@@H](N)CCCCNC(=O)[C@H](Cc2c[nH]c3ccccc23)NC(=O)[C@H](Cc2ccccc2)NC(=O)[C@H](CO)NC1=O
# Molecular target: T1, β-catenin
# Assay: cell-based or functional assay
row,Binder,Wnt Reporter EC50
1,WFLISFW-NH2 [SEQ ID NO: 98],> 30 µM
2,H-WFLISSW-OH [SEQ ID NO: 97],> 22.5 µM and ≤ 30 µM
3,H-WFLISTW-OH [SEQ ID NO: 103],> 15 µM and ≤ 22.5 µM
4,B1,> 7.5 µM and ≤ 15 µM
5,B2,> 7.5 µM and ≤ 15 µM
6,H-WFLITTW-OH [SEQ ID NO: 100],> 7.5 µM and ≤ 15 µM
7,H-WFLISYW-OH [SEQ ID NO: 109],> 7.5 µM and ≤ 15 µM
8,H-KMWILICFWG-OH [SEQ ID NO: 113],> 30 µM
9,B3,> 7.5 µM and ≤ 15 µM
10,H-RMWILICFWG-OH [SEQ ID NO: 115],> 15 µM and ≤ 22.5 µM
11,H-HMWILICFWG-OH [SEQ ID NO: 114],≤ 7.5 µM
12,H-RMWILISFWG-OH [SEQ ID NO: 124],> 7.5 µM and ≤ 15 µM
13,MWFLISFW-NH2 [SEQ ID NO: 107],> 7.5 µM and ≤ 15 µM
14,MSRMWFLISFW-NH2 [SEQ ID NO: 72],> 30 µM
15,B4,> 7.5 µM and ≤ 15 µM
16,YSRMWFLISFW-NH2 [SEQ ID NO: 82],> 30 µM
17,WSRMWFLISFW-NH2 [SEQ ID NO: 79],> 30 µM
18,B5,> 15 µM and ≤ 22.5 µM
19,ESRMWFLISFW-NH2 [SEQ ID NO: 86],> 30 µM
20,KSRMWFLISFW-NH2 [SEQ ID NO: 83],> 30 µM
21,MSRKWFLISFW-NH2 [SEQ ID NO: 87],> 30 µM

row,Binder,Wnt Reporter EC50
1,MSRMWWLISFW-NH2 [SEQ ID NO: 80],> 30 µM
2,MQRMWFLISFW-NH2 [SEQ ID NO: 74],> 30 µM
3,MSRWWFLISFW-NH2 [SEQ ID NO: 78],> 30 µM
4,MSRHWFLISFW-NH2 [SEQ ID NO: 88],> 30 µM
5,B6,> 30 µM
6,MSRRWFLISFW-NH2 [SEQ ID NO: 75],> 30 µM
7,DSRMWFLISFW-NH2 [SEQ ID NO: 85],> 30 µM
8,MSRTWFLISFW-NH2 [SEQ ID NO: 76],> 30 µM
9,KSRKWFLISFW-NH2 [SEQ ID NO: 93],> 30 µM
10,H-MSRMWFLISSW-OH [SEQ ID NO: 99],> 22.5 µM and ≤ 30 µM
11,KSRWWFLISFW-NH2 [SEQ ID NO: 95],> 30 µM
12,WSRHWFLISFW-NH2 [SEQ ID NO: 91],> 30 µM
13,KSRHWFLISFW-NH2 [SEQ ID NO: 94],> 30 µM
14,HSRMWFLISFW-NH2 [SEQ ID NO: 89],> 30 µM
15,MTRMWFLISFW-NH2 [SEQ ID NO: 73],> 30 µM
16,FSRMWFLISFW-NH2 [SEQ ID NO: 81],> 30 µM
17,RSRMWFLISFW-NH2 [SEQ ID NO: 84],> 30 µM
18,WSRWWFLISFW-NH2 [SEQ ID NO: 92],> 15 µM and ≤ 22.5 µM
19,MSRFWFLISFW-NH2 [SEQ ID NO: 77],> 30 µM
20,WSRKWFLISFW-NH2 [SEQ ID NO: 90],> 30 µM
21,H-WFLISFW-OH [SEQ ID NO: 110],> 7.5 µM and ≤ 15 µM
